# From patent US20180094059A1 (published 2018)
# Molecular target: TRAIL-R2-Fc (human, UniProt O14763 56-210)
# Test: ELISA
row,EC50 [nM],Binder
1,8.82,scTRAIL3-FAVGGIA (protein) MDWTWRVFCLLAVAPGAHSLDDYKDDDDKEFGGAAAHITGTRGRSNTLSSPNSKNEKALGRKINSWESSRSGHSFLSNLHLRNGELVIHEKGFYYIYSQTYFRFQEEIKENTKNDKQMVQYIYKYTSYPDPILLMKSARNSCWSKDAEYGLYSIYQGGIFELKENDRIFVSVTNEHLIDMDHEASFFGAFLVGGAAAHITGTRGRSNTLSSPNSKNEKALGRKINSWESSRSGHSFLSNLHLRNGELVIHEKGFYYIYSQTYFRFQEEIKENTKNDKQMVQYIYKYTSYPDPILLMKSARNSCWSKDAEYGLYSIYQGGIFELKENDRIFVSVTNEHLIDMDHEASFFGAFLVGGAAAHITGTRGRSNTLSSPNSKNEKALGRKINSWESSRSGHSFLSNLHLRNGELVIHEKGFYYIYSQTYFRFQEEIKENTKNDKQMVQYIYKYTSYPDPILLMKSARNSCWSKDAEYGLYSIYQGGIFELKENDRIFVSVTNEHLIDMDHEASFFGAFLVG
2,5.69,scTRAIL3-FAVSGAA (protein) MDWTWRVFCLLAVAPGAHSLDDYKDDDDKEFGGAAAHITGTRGRSNTLSSPNSKNEKALGRKINSWESSRSGHSFLSNLHLRNGELVIHEKGFYYIYSQTYFRFQEEIKENTKNDKQMVQYIYKYTSYPDPILLMKSARNSCWSKDAEYGLYSIYQGGIFELKENDRIFVSVTNEHLIDMDHEASFFGAFAVSGAAAHITGTRGRSNTLSSPNSKNEKALGRKINSWESSRSGHSFLSNLHLRNGELVIHEKGFYYIYSQTYFRFQEEIKENTKNDKQMVQYIYKYTSYPDPILLMKSARNSCWSKDAEYGLYSIYQGGIFELKENDRIFVSVTNEHLIDMDHEASFFGAFAVSGAAAHITGTRGRSNTLSSPNSKNEKALGRKINSWESSRSGHSFLSNLHLRNGELVIHEKGFYYIYSQTYFRFQEEIKENTKNDKQMVQYIYKYTSYPDPILLMKSARNSCWSKDAEYGLYSIYQGGIFELKENDRIFVSVTNEHLIDMDHEASFFGAFAVS
3,4.82,scTRAIL3-FIVGGIA (protein) MDWTWRVFCLLAVAPGAHSLDDYKDDDDKEFGGAAAHITGTRGRSNTLSSPNSKNEKALGRKINSWESSRSGHSFLSNLHLRNGELVIHEKGFYYIYSQTYFRFQEEIKENTKNDKQMVQYIYKYTSYPDPILLMKSARNSCWSKDAEYGLYSIYQGGIFELKENDRIFVSVTNEHLIDMDHEASFFGAFAVGGAAAHITGTRGRSNTLSSPNSKNEKALGRKINSWESSRSGHSFLSNLHLRNGELVIHEKGFYYIYSQTYFRFQEEIKENTKNDKQMVQYIYKYTSYPDPILLMKSARNSCWSKDAEYGLYSIYQGGIFELKENDRIFVSVTNEHLIDMDHEASFFGAFAVGGAAAHITGTRGRSNTLSSPNSKNEKALGRKINSWESSRSGHSFLSNLHLRNGELVIHEKGFYYIYSQTYFRFQEEIKENTKNDKQMVQYIYKYTSYPDPILLMKSARNSCWSKDAEYGLYSIYQGGIFELKENDRIFVSVTNEHLIDMDHEASFFGAFAVG
4,17.5,scTRAIL3-FLVSGIA (protein) MDWTWRVFCLLAVAPGAHSLDDYKDDDDKEFGGIAAHITGTRGRSNTLSSPNSKNEKALGRKINSWESSRSGHSFLSNLHLRNGELVIHEKGFYYIYSQTYFRFQEEIKENTKNDKQMVQYIYKYTSYPDPILLMKSARNSCWSKDAEYGLYSIYQGGIFELKENDRIFVSVTNEHLIDMDHEASFFGAFAVGGIAAHITGTRGRSNTLSSPNSKNEKALGRKINSWESSRSGHSFLSNLHLRNGELVIHEKGFYYIYSQTYFRFQEEIKENTKNDKQMVQYIYKYTSYPDPILLMKSARNSCWSKDAEYGLYSIYQGGIFELKENDRIFVSVTNEHLIDMDHEASFFGAFAVGGIAAHITGTRGRSNTLSSPNSKNEKALGRKINSWESSRSGHSFLSNLHLRNGELVIHEKGFYYIYSQTYFRFQEEIKENTKNDKQMVQYIYKYTSYPDPILLMKSARNSCWSKDAEYGLYSIYQGGIFELKENDRIFVSVTNEHLIDMDHEASFFGAFAVG
5,6.7,scTRAIL3-FIVSGIA (protein) MDWTWRVFCLLAVAPGAHSLDDYKDDDDKEFGGIAAHITGTRGRSNTLSSPNSKNEKALGRKINSWESSRSGHSFLSNLHLRNGELVIHEKGFYYIYSQTYFRFQEEIKENTKNDKQMVQYIYKYTSYPDPILLMKSARNSCWSKDAEYGLYSIYQGGIFELKENDRIFVSVTNEHLIDMDHEASFFGAFIVGGIAAHITGTRGRSNTLSSPNSKNEKALGRKINSWESSRSGHSFLSNLHLRNGELVIHEKGFYYIYSQTYFRFQEEIKENTKNDKQMVQYIYKYTSYPDPILLMKSARNSCWSKDAEYGLYSIYQGGIFELKENDRIFVSVTNEHLIDMDHEASFFGAFIVGGIAAHITGTRGRSNTLSSPNSKNEKALGRKINSWESSRSGHSFLSNLHLRNGELVIHEKGFYYIYSQTYFRFQEEIKENTKNDKQMVQYIYKYTSYPDPILLMKSARNSCWSKDAEYGLYSIYQGGIFELKENDRIFVSVTNEHLIDMDHEASFFGAFIVG

# Molecular target: HT1080
# Test: flow cytometry; HT1080 cells
row,EC50 [nM],Binder
1,1.9,"Db8-Glyco-scTRAIL3-FAVSGAA (other, glycosylated connecting peptide) LEASDYKDDDDKGAEVQLVESGGGLVQPGGSLRLSCAASGFSLTNYGVHWVRQAPGKGLEWLGVIWSGGNTDYNTPFTSRFTISRDNSKNTLYLQMNSLRAEDTAVYYCARALTYYDYEFAYWGQGTTVTVSSGGGGSGGGDIQLTQSPSFLSASVGDRVTITCRASQSIGTNIHWYQQKPGKAPKLLIKYASESISGVPSRFSGSGSGTEFTLTISSLQPEDFATYYCQQNNNWPTTFGAGTKLEIKRAAAGNGTSNGTSEFGGAAAHITGTRGRSNTLSSPNSKNEKALGRKINSWESSRSGHSFLSNLHLRNGELVIHEKGFYYIYSQTYFRFQEEIKENTKNDKQMVQYIYKYTSYPDPILLMKSARNSCWSKDAEYGLYSIYQGGIFELKENDRIFVSVTNEHLIDMDHEASFFGAFAVSGAAAHITGTRGRSNTLSSPNSKNEKALGRKINSWESSRSGHSFLSNLHLRNGELVIHEKGFYYIYSQTYFRFQEEIKENTKNDKQMVQYIYKYTSYPDPILLMKSARNSCWSKDAEYGLYSIYQGGIFELKENDRIFVSVTNEHLIDMDHEASFFGAFAVSGAAAHITGTRGRSNTLSSPNSKNEKALGRKINSWESSRSGHSFLSNLHLRNGELVIHEKGFYYIYSQTYFRFQEEIKENTKNDKQMVQYIYKYTSYPDPILLMKSARNSCWSKDAEYGLYSIYQGGIFELKENDRIFVSVTNEHLIDMDHEASFFGAFAVS"
2,0.6,Db-Glyco-scTRAIL-95L8 (other) TSEETISTVQEKQQNISPLVRERGPQRVAAHITGTRGRSNTLSSPNSKNEKALGRKINSWESSRSGHSFLSNLHLRNGELVIHEKGFYYIYSQTYFRFQEEIKENTKNDKQMVQYIYKYTSYPDPILLMKSARNSCWSKDAEYGLYSIYQGGIFELKENDRIFVSVTNEHLIDMDHEASFFGAFLVGGGGSGGGSTSEETISTVQEKQQNISPLVRERGPQRVAAHITGTRGRSNTLSSPNSKNEKALGRKINSWESSRSGHSFLSNLHLRNGELVIHEKGFYYIYSQTYFRFQEEIKENTKNDKQMVQYIYKYTSYPDPILLMKSARNSCWSKDAEYGLYSIYQGGIFELKENDRIFVSVTNEHLIDMDHEASFFGAFLVGGGGSGGGSTSEETISTVQEKQQNISPLVRERGPQRVAAHITGTRGRSNTLSSPNSKNEKALGRKINSWESSRSGHSFLSNLHLRNGELVIHEKGFYYIYSQTYFRFQEEIKENTKNDKQMVQYIYKYTSYPDPILLMKSARNSCWSKDAEYGLYSIYQGGIFELKENDRIFVSVTNEHLIDMDHEASFFGAFLVG
3,2.6,"Db-Glyco-scTRAIL3-FAVSGAA (other, two N-glycosylation sites in the peptide AAAGNGTSNGTSEFGG, shown to be glycosylated) LEASDYKDDDDKGAEVQLVESGGGLVQPGGSLRLSCAASGFSLTNYGVHWVRQAPGKGLEWLGVIWSGGNTDYNTPFTSRFTISRDNSKNTLYLQMNSLRAEDTAVYYCARALTYYDYEFAYWGQGTTVTVSSGGGGSDIQLTQSPSFLSASVGDRVTITCRASQSIGTNIHWYQQKPGKAPKLLIKYASESISGVPSRFSGSGSGTEFTLTISSLQPEDFATYYCQQNNNWPTTFGAGTKLEIKRAAAGNGTSNGTSEFGGAAAHITGTRGRSNTLSSPNSKNEKALGRKINSWESSRSGHSFLSNLHLRNGELVIHEKGFYYIYSQTYFRFQEEIKENTKNDKQMVQYIYKYTSYPDPILLMKSARNSCWSKDAEYGLYSIYQGGIFELKENDRIFVSVTNEHLIDMDHEASFFGAFAVSGAAAHITGTRGRSNTLSSPNSKNEKALGRKINSWESSRSGHSFLSNLHLRNGELVIHEKGFYYIYSQTYFRFQEEIKENTKNDKQMVQYIYKYTSYPDPILLMKSARNSCWSKDAEYGLYSIYQGGIFELKENDRIFVSVTNEHLIDMDHEASFFGAFAVSGAAAHITGTRGRSNTLSSPNSKNEKALGRKINSWESSRSGHSFLSNLHLRNGELVIHEKGFYYIYSQTYFRFQEEIKENTKNDKQMVQYIYKYTSYPDPILLMKSARNSCWSKDAEYGLYSIYQGGIFELKENDRIFVSVTNEHLIDMDHEASFFGAFAVS"
4,4.3,"Db-Glyco-scTRAIL3-FAVSGIA (other, glycosylated connecting peptide) LEASDYKDDDDKGAEVQLVESGGGLVQPGGSLRLSCAASGFSLTNYGVHWVRQAPGKGLEWLGVIWSGGNTDYNTPFTSRFTISRDNSKNTLYLQMNSLRAEDTAVYYCARALTYYDYEFAYWGQGTTVTVSSGGGGSDIQLTQSPSFLSASVGDRVTITCRASQSIGTNIHWYQQKPGKAPKLLIKYASESISGVPSRFSGSGSGTEFTLTISSLQPEDFATYYCQQNNNWPTTFGAGTKLEIKRAAAGNGTSNGTSEFGGIAAHITGTRGRSNTLSSPNSKNEKALGRKINSWESSRSGHSFLSNLHLRNGELVIHEKGFYYIYSQTYFRFQEEIKENTKNDKQMVQYIYKYTSYPDPILLMKSARNSCWSKDAEYGLYSIYQGGIFELKENDRIFVSVTNEHLIDMDHEASFFGAFAVSGIAAHITGTRGRSNTLSSPNSKNEKALGRKINSWESSRSGHSFLSNLHLRNGELVIHEKGFYYIYSQTYFRFQEEIKENTKNDKQMVQYIYKYTSYPDPILLMKSARNSCWSKDAEYGLYSIYQGGIFELKENDRIFVSVTNEHLIDMDHEASFFGAFAVSGIAAHITGTRGRSNTLSSPNSKNEKALGRKINSWESSRSGHSFLSNLHLRNGELVIHEKGFYYIYSQTYFRFQEEIKENTKNDKQMVQYIYKYTSYPDPILLMKSARNSCWSKDAEYGLYSIYQGGIFELKENDRIFVSVTNEHLIDMDHEASFFGAFAVS"
